From publication PMC4424056

Tests used:
[1] = biological target: integrin αIIb cytoplasmic tail (αIIb CT, W988-E1008) (human) (UniProt P08514)
[2] = biological target: integrin αIIb cytoplasmic tail (αIIb CT, W988-E1008) (human) (UniProt P08514); test: SPR

Chain of integrin αIIb cytoplasmic tail (αIIb CT, W988-E1008) (human) (P08514 1019-1039): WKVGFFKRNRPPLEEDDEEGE

filamin A immunoglobulin repeat 21 (FLNa-Ig21) (from UniProt P21333 2236-2330) (domain or fragment)
inhibition by FLNa-Ig21 of the PAC1 binding of WT αIIbβ3 in CHO cells [1]: 40% | Kd [2]: 229 µM
